Experimental data reported in patent US20260193317A1, “COMBINATION THERAPY WITH ACTRIIB RECEPTOR VARIANTS AND GLP-1 AGONISTS” (35PHARMA Inc., priority 2023, published 2026).
Read-outs that look alike come from different tables or passages of the source.

Assays:
[1] = biological target: T1, activin A (Homo sapiens, UniProt P08476); test: Small-scale activin A ELISA with CHO supernatants; conditions: 1 μg/mL protein, 30 ng/mL activin A, loss of signal = binding
T1 sequence (P08476 311-426): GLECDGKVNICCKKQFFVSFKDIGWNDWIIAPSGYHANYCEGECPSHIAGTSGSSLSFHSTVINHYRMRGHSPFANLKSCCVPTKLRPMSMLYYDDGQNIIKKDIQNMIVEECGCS
Experimental: Small-scale testing of ActRIIB-ECD fusion proteins. Additional investigation of a series of exemplary agents was performed using proteins expressed in CHO cells. Briefly, DNA encoding the ActRIIB-ECD-Fc fusion constructs was transfected in cells seeded in 12-well plates in a final volume of 1 ml. After 7 days, the supernatant was harvested, clarified, and the amount of expressed protein in each well was quantified using standard methods. The potency of each agent for inhibition of activin A, BMP-9 and BMP-10 was determined in three separate assays.
The next day, the plate was washed three times with buffer (Biolegend #421601). […] Expressed proteins in the supernatants described above were diluted to 2 μg/mL in assay diluent (0.5% BSA, 0.05% tween-20 in PBS), mixed 1:1 with recombinant human activin A (R&D #338-AC, 60 ng/mL, diluted in assay diluent). Complexes were immediately added to the 96-well plate in technical duplicates and incubated for 1 h at RT (concentration of expressed protein and activin A on the plate were 1 μg/mL and 30 ng/mL, respectively). […] In this assay, a loss of signal indicates binding of the exemplary agent to activin A, which prevents activin A binding to the anti-activin A antibody on the plate. Results are expressed as a % of the signal obtained with wild-type ActRIIB-Fc (P75).

[2] = mouse, in vivo, sc
Experimental: Evaluation of pharmacokinetic profiles.
To determine the concentration of P1229 in mouse serum samples, a 96-well plate was coated 1 h at RT with a solution of anti-ectodomain antibody (1 μg/mL in carbonate buffer, 100 μL/well). The plate was then washed three times with buffer (Biolegend #421601). Blocking buffer (1% BSA, 0.05% tween-20 in TBS, 300 μL/well) was added to each well and the plate was incubated for 1 hour at RT with shaking at 300 rpm. The plate was washed three times and Standards, QCs and sample were diluted in assay diluent (1% BSA, 0.05% tween-20 in TBS, 100 μL/well) and loaded in duplicate on the plate for 1 h30 at RT with shaking at 300 rpm. The plate was washed three times and a solution of anti-human Fc antibody conjugated to HRP (Southern Biotech #2049-05, diluted 1 in 20,000 in assay diluent, 100 μL/well) was added to each well and incubated for 1 h at RT with shaking at 300 rpm.

[3] = system: DIO mice; test: Body composition in high fat diet mice, alone and in combination with incretin mimetics; assay type: in vivo
Experimental: Experiments were performed in vivo to investigate the potential for additive or synergistic effects between exemplary ActRIIB-ECD polypeptide constructs and incretin mimetics.

[4] = biological target: GDF-8 (Homo sapiens, UniProt O14793); test: TGFβ-reporter HEK293 cell-based assay: GDF-8 neutralization; conditions: for IC50: read-out: CBA Potency GDF-8; for CBA potency GDF-8, potency fold-change: relative to reference (P1372 = 1)
Experimental: (§1) Potency testing by neutralization on cell-based assays. Characterization of the activin A, activin B, GDF-8, and GDF-11 inhibition potency (IC50) of the fusion proteins was performed using a cell-based reporter assay. TGFβ-reporter HEK293 cells were obtained from InvivoGen (San Diego, CA, cat. no. hkb-tgfb) and were maintained following the manufacturer's instructions. Briefly, cells were grown in high-glucose DMEM, containing 10% heat-inactivated FBS, 30 μg/mL blasticidin, 250 μg/mL hygromycin B, and 100 μg/mL zeocin (hereafter, “growth medium”). Once the cells reached 70-80% confluence, they were detached in growth medium by gently tapping on the flask. For all assays, cells were seeded in 96-well plates at a density of 20,000 cells per well in growth medium. Cells were left to attach for 10 minutes at room temperature (RT) prior to being transferred to a 37° C. incubator (5% CO2) overnight. The next day, treatments were prepared by combining the appropriate concentration of agent with activin A, activin B, GDF-8, or GDF-11 for 30 min at RT (shaking at 150 rpm). Treatments were conducted in high-glucose DMEM (serum-free and with no selection agents), and the final concentration of cytokine (ligand) was 0.3 nM. Growth medium was removed from the culture plates, and cells were treated with the appropriate mixes of fusion protein and cytokine. Treatment duration was for 18-22 h at 37° C. (5% CO2). All treatments were performed in technical duplicates and at least one or two independent experiments were conducted for each cytokine. At the end of the treatment period, supernatants were transferred to a new plate, and centrifuged at 300 RPM for 3 min. Forty microlitres of supernatant from each condition was transferred to a new plate, into which 180 μL of Quanti-Blue reagent (InvivoGen, cat. no. rep-qbs) was added. Quanti-Blue reagent was prepared following the manufacturer's instructions. Samples were incubated for 45 min at 37° C. At the end of the incubation, absorbance was read at 650 nm. The data were plotted in GraphPad Prism, which was used to calculate IC50 values as a non-linear regression.

[5] = biological target: T1, activin A; test: TGFβ-reporter HEK293 cell-based assay: activin A neutralization; conditions: for IC50: read-out: CBA Potency Activin A; for CBA potency Activin A, potency fold-change: relative to reference (P1372 = 1)
Experimental: as §1

[6] = Co-formulation study of ectodomain-based traps with incretin mimetics (monomer content by SEC / RP-HPLC, integrity, stability); assay type: physicochemical
Experimental: In each case, the following parameters were assessed: a) monomer content (size exclusion chromatography), b) activin A and GDF-8 neutralization (cell-based assays [CBAs]), c) activin A binding (ELISA), d) GLP-1 receptor binding (ELISA).
In each case, the following parameters were assessed: a) monomer content (size exclusion chromatography), b) activin A and GDF-8 neutralization (cell-based assays [CBAs]), and c) GLP-1 receptor activation (CBA).
Given that protein aggregation can be indicative of reduced conformational stability and decreased activity, Size-Exclusion Chromatography-High Performance Liquid Chromatography (SEC-HPLC) was used to determine the purity of each ActRIIB-ECD construct. This method measured the percentage of intact monomeric species as well as the presence of aggregates and/or degradation products.
In some instances, the method used to assess the purity of an agent was based on a reversed-phase high-performance liquid chromatography (RP-HPLC) setup with a C18 column. The mobile phases consisted of acetonitrile with 0.1% formic acid (organic phase) and water with 0.1% formic acid (aqueous phase). […] Formic acid anions form an ion pair with positively charged peptides, increasing their hydrophobicity and therefore their retention time. Detection was performed using a UV detector, at 280 nm.

[7] = DIO mice, 21 days, P1229 10 mg/kg twice weekly
[8] = DIO mice, 21 days, P1229 40 mg/kg twice weekly + calorie restriction
[9] = D 7 after storage at room temperature
[10] = D 28, storage at room temperature

For “P1229: hActRIIB L33W, 14 aa linker, IgG1-DL Fc; SEQ ID 211”, the “activin A binding, ELISA signal relative to P75” value [1] was “potent activin A binding”, the “PK profile alone versus in the co-formulation” value [2] was “comparable PK profile” and the “Body weight (% change from baseline)” value ([3]; DIO mice, 21 days s.c., P1307 20 mg/kg weekly, P1229 40 mg/kg twice weekly, semaglutide 40 μg/kg daily, tirzepatide 45 μg/kg daily, alone or combined) was “+11.1%”. For the same molecule, the “Body weight (% change from baseline)” value [3, 7] was “+7.7%”, the “Fat mass (% change from baseline)” value [3, 7] was −1.6% and the “Lean mass (% change from baseline)” value [3, 7] was “+10.6%”. For the same molecule, the “Lean mass/fat mass ratio” value [3, 7] was 1.4, the “Body weight (% change from baseline)” value [3, 8] was −12.8% and the “Fat mass (% change from baseline)” value [3, 8] was −33.7%. The “Lean mass (% change from baseline)” value [3, 8] was “+3.5%”, the “Lean mass/fat mass ratio” value [3, 8] was 1.9 and the “visceral, epididymal, pericardial, peri-renal, and retroperitoneal white adipose tissue weights” value ([3]; DIO mice, D21) was “not significantly affected”. For the same molecule, the “white adipose tissue weights” value ([3]; DIO mice, D21, P1229 with caloric restriction) was “significantly decreased visceral, pericardial, and peri-renal (but not epididymal and retroperitoneal) white adipose tissue weights”, the “gastrocnemius and tibialis anterior weights” value ([3]; DIO mice, D21, P1229 with or without caloric restriction) was “significantly increased” and the “Fat mass (% change from baseline)” value ([3]; as E44, NMR) was “+2.7%”. For the same molecule, the “Lean mass (% change from baseline)” value ([3]; as E44, NMR) was “+15.1%” and the “Lean mass/fat mass ratio” value ([3]; as E44, NMR) was 1.3.

B1: P1372: hActRIIB L33W, 14 aa linker, IgG1 YTE-DL Fc; SEQ ID 231 (protein)
chain: ETRECIYYNANWELERTNQSGLERCEGEQDKRWHCYASWRNSSGTIELVKKGCWLDDFNCYDRQECVATEENPQVYFCCCEGNFCNERFTHLPEAGGPEVTYEPPPTGGGGSGGGGSGGGGTHTCPPCPAPELLGGPSVFLFPPKPKDTLYITREPEVTCVVVDVSHEDPEVKFNWYVDGVEVHNAKTKPREEQYNSTYRVVSVLTVLHQDWLNGKEYKCKVSNKALPAPIEKTISKAKGQPREPQVYTLPPSRDELTKNQVSLTCLVKGFYPSDIAVEWESNGQPENNYKTTPPVLDSDGSFFLYSKLTVDKSRWQQGNVFSCSVMHEALHNHYTQKSLSLSPG
For B1, the “CBA potency GDF-8, fold-change vs reference” value (shortened to “CBA potency GDF-8, fold-change”) ([4]; D 0) was 1 (ref), the IC50 ([4]; D 0) was 0.27 nM and the IC50 ([4]; D 7, 2-8° C.) was 0.22 nM. The IC50 ([4]; D 7, RT) was 0.24 nM, the “CBA potency GDF-8, fold-change” value ([4]; D 7 after storage at 2-8° C.) was 1 (ref) and the “CBA potency GDF-8, fold-change” value [4, 9] was 1 (ref). It also gave an IC50 ([4]; D 14, 2-8° C.) of 0.35 nM, an IC50 ([4]; D 14, RT) of 0.36 nM and an IC50 ([4]; D 28, 2-8° C.) of 0.45 nM. The IC50 ([4]; D 28, RT) was 0.44 nM, the “CBA potency GDF-8, potency fold-change” value ([4]; D 28, storage at 2-8° C.) was 1 (ref) fold and the “CBA potency GDF-8, potency fold-change” value [4, 10] was 1 (ref) fold. For the same molecule, the IC50 ([4]; D 56, 2-8° C.) was 0.34 nM, the IC50 ([4]; D 56, RT) was 0.36 nM and the “CBA potency Activin A, fold-change vs reference” value ([5]; D 0) was 1 (ref). It also gave an IC50 ([5]; D 0) of 0.59 nM, an IC50 ([5]; D 7, 2-8° C.) of 0.81 nM and an IC50 ([5]; D 7, RT) of 0.78 nM. For the same molecule, the “CBA potency Activin A, fold-change vs reference” value ([5]; D 7 after storage at 2-8° C.) was 1 (ref), the “CBA potency Activin A, fold-change vs reference” value [5, 9] was 1 (ref) and the IC50 ([5]; D 14, 2-8° C.) was 0.63 nM. The IC50 ([5]; D 14, RT) was 0.74 nM, the IC50 ([5]; D 28, 2-8° C.) was 0.99 nM and the IC50 ([5]; D 28, RT) was 0.9 nM. For the same molecule, the “CBA potency Activin A, potency fold-change” value ([5]; D 28, storage at 2-8° C.) was 1 (ref) fold, the “CBA potency Activin A, potency fold-change” value [5, 10] was 1 (ref) fold and the IC50 ([5]; D 56, RT) was 1.1 nM. The “Monomer content P1372” value ([6]; D 0, P1372 40 mg/mL, semaglutide […], pH 7.5) was 99.3%, the “Monomer Content (%) P1372” value ([6]; D 0, P1372 40 mg/mL, tirzepatide 10 mg/mL, 10 mM NaPO4, 100 mM Glycine, 75 mM sucrose (pH 7.5)) was 98.9% and the “Monomer Content (%) P1372” value ([6]; D 7, 2-8° C.) was 98.9%. For the same molecule, the “Monomer Content (%) P1372” value ([6]; D 7, RT) was 98.8%, the “Monomer content P1372” value ([6]; D 7 after storage at 2-8° C.) was 99.3% and the “Monomer content P1372” value [6, 9] was 99.2%. For the same molecule, the “Monomer Content (%) P1372” value ([6]; D 14, 2-8° C.) was 98.8%, the “Monomer Content (%) P1372” value ([6]; D 14, RT) was 97.9% and the “Monomer Content (%) P1372” value ([6]; D 28, 2-8° C.) was 98.9%. The “Monomer Content (%) P1372” value ([6]; D 28, RT) was 98.6%, the “Monomer content P1372” value ([6]; D 28, storage at 2-8° C., 10 mM NaPO4, 100 mM glycine, 75 mM sucrose pH 7.5) was 99.2% and the “Monomer content P1372” value ([6]; D 28, storage at room temperature, 10 mM NaPO4, 100 mM glycine, 75 mM sucrose pH 7.5) was 98.8%. The “Monomer Content (%) P1372” value ([6]; D 56, 2-8° C.) was 98.8% and the “Monomer Content (%) P1372” value ([6]; D 56, RT) was 98.4%.
